Laboratory results published in patent CN1977043A (CBR INST FOR BIOMED RES INC, dated 2007).

Biological target: IgM CM-22
Test: SPR (Biacore CM5), N2 10.5-120μM injected over amine-coupled IgM CM-22, steady-state fit to 1:1 Langmuir isotherm

Sequence of IgM CM-22 (chain, as listed by the source, chain 1 of 2): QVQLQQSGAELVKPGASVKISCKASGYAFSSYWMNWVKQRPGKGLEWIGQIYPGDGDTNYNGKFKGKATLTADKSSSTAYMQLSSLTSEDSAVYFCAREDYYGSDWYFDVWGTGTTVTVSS
Sequence of IgM CM-22 (chain, as listed by the source, chain 2 of 2): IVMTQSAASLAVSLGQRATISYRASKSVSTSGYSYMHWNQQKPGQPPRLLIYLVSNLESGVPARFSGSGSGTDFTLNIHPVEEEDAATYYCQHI

B1: self peptide N2 (peptide)
peptide: LMKNMDPLNDNV
notes: also called 自身肽N2; N2肽
Kd: 123 µM
